PMC8298602, “14-3-3-protein regulates Nedd4-2 by modulating interactions between HECT and WW domains” (Communications Biology, 2021)

T1: 14-3-3η (Homo sapiens, UniProt Q04917)
T1 sequence (Q04917 1-246): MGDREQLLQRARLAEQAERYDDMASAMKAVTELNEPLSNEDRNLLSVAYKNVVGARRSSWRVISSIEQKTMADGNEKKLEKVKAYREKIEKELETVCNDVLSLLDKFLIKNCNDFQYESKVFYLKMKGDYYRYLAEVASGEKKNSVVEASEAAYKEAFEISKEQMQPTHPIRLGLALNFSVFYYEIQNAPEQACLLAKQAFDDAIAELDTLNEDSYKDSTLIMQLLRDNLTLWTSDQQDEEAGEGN


Assays:
[1] = SEC-SAXS structural parameters; format: physicochemical; conditions: for Rg (Guinier approximation): 20 mM Tris-HCl pH 7.5, 150 mM NaCl, 1 mM TCEP, 3% glycerol
Experimental: SAXS data were collected on the European Molecular Biology Laboratory (EMBL) P12 beamline, at the storage ring PETRA III (Deutsches Elektronen Synchrotron (DESY), Hamburg, Germany). The SEC-SAXS measurements were conducted in a buffer containing 20 mM Tris-HCl (pH 7.5), 150 mM NaCl, 1 mM TCEP, 3% (w/v) glycerol using Superdex 200 Increase 5/150 GL column (GE Healthcare) at the flow rate 0.5 ml.min^−1 at 293.15 K.
The loading concentrations of the samples were 2.2 mg.ml^−1 for Nedd4-2^186–975, 2 mg.ml^−1 for 14-3-3η and 8.9 mg.ml^−1 for the Nedd4-2^186–975:14-3-3η complex (1:2 molar stoichiometry). The injection volume of the samples was 52 μl. Elution profiles with the corresponding frames were processed using ATSAS 3.0.2 software CHROMIXS[71]. ATSAS software PRIMUS and GNOM were used to determine the excluded volume of the hydrated particle (Vp), the radius of gyration (Rg) and maximum particle dimension (Dmax)[72],[73]. The molecular mass (MW) was determined using a methods described by Rambo et al.[74]. Scattering profiles, P(r) functions, normalized Kratky plots and Guinier approximations were visualized using GraphPad Prism version 8.0.1 for Windows (GraphPad Software, La Jolla California USA, www.graphpad.com). The program DAMMIF was used to calculate the ab inicio molecular envelopes. For the complex, 10 surfaces were generated in slow mode and averaged using DAMAVER[76]. The averaged surfaces were used as the final filtered model of the complex, which was superimposed to the structural model using the SUPCOMB program (EMBL, Hamburg, Germany)[77].

14-3-3η [2] = biological target: T1, 14-3-3η; test: SV-AUC (sedimentation velocity analytical ultracentrifugation), sw isotherm binding analysis; conditions: for binding affinity (in words): 1 μM 14-3-3η with Nedd^335–455 variants (0.05 – 5 μM)
Experimental: Solution properties of Nedd4-2^186–975 and its interactions with 14-3-3 were characterized by sedimentation velocity analytical ultracentrifugation (SV AUC).
Sedimentation velocity (SV) experiments were performed using a ProteomLab^TM XL-I, Beckman Coulter analytical ultracentrifuge. The samples were dialyzed against a buffer containing 20 mM Tris-HCl (pH 7.5), 150 mM NaCl, and 1 mM TCEP before analysis. The samples with the longer construct of Nedd4-2^186–975 were dialyzed against a buffer containing 50 mM Tris-HCl (pH 8.0), 500 mM NaCl, 1 mM TCEP and 0.01% (v/v) Tergitol NP-40 (Sigma). […] The buffer density, viscosity, and partial specific volume of all proteins were estimated using the program […]. All sedimentation profiles were collected with absorbance optics at 280 nm. The sedimentation coefficients c(s) distributions were calculated from raw data using the SEDFIT software package. The calculated distributions were integrated to establish the weight-average sedimentation coefficients corrected to 20 °C and the density of water, sw(20,w). […] The resulting isotherms were fitted with a A + B ⇌ AB model, as implemented in the SEDPHAT software package with previously known sw values of each component. The parameters were verified, and the loading concentrations were corrected using global Lamm-equation modeling, also implemented in the SEDPHAT software[66]

14-3-3η [3] = biological target: T1, 14-3-3η; test: native TBE-PAGE complex formation with 14-3-3η; format: binding; conditions: 12% native TBE-PAGE, 240 pmol 14-3-3η and 120 pmol Nedd4-2 variant
Experimental: Based on our estimates, the KD value was lower than 50 nM, as further confirmed by global modeling. TEXT PRINTED IN THE PICTURE: (d) no label printed: KD < 50 nM
Fig. 3 Simultaneous phosphorylation of two 14-3-3 binding motifs pSer342 and pSer448 is required for tight complex formation between pNedd4-2^335–455 and 14-3-3η. a 12% Native TBE-PAGE showing the interaction between 14-3-3η (240 pmol) and Nedd^335–455 variants without (no pS) or with one, two or three phosphorylation sites (120 pmol); 14-3-3η protein alone was loaded on the penultimate lane. b–i Sedimentation velocity analytical ultracentrifugation analysis of the complexes between 14-3-3η and pNedd4-2^335–455 variants showing the sw isotherms of 14-3-3η and Nedd4-2 with all three phosphorylation sites pSer^342 + pThr^367 + pSer^448 (b), with no phosphorylation sites (c), with one phosphorylation site (pSer^342 (d), pThr^367 (e) and pSer^448 (f)), or with two phosphorylation sites (pSer^342 + pThr^367 (g), pSer^342 + pSer^448 (h) and pThr^367 + pSer^448 (i)). […] The c(s) distributions underlying the sw data points are shown in Supplementary Fig. S3.

[4] = SV-AUC continuous sedimentation coefficient distributions c(s); format: physicochemical
Experimental: Sedimentation velocity (SV) experiments were performed using a ProteomLab^TM XL-I, Beckman Coulter analytical ultracentrifuge. The samples were dialyzed against a buffer containing 20 mM Tris-HCl (pH 7.5), 150 mM NaCl, and 1 mM TCEP before analysis. The samples with the longer construct of Nedd4-2^186–975 were dialyzed against a buffer containing 50 mM Tris-HCl (pH 8.0), 500 mM NaCl, 1 mM TCEP and 0.01% (v/v) Tergitol NP-40 (Sigma). […] The buffer density, viscosity, and partial specific volume of all proteins were estimated using the program […]. All sedimentation profiles were collected with absorbance optics at 280 nm. The sedimentation coefficients c(s) distributions were calculated from raw data using the SEDFIT software package. The calculated distributions were integrated to establish the weight-average sedimentation coefficients corrected to 20 °C and the density of water, sw(20,w). The sw values were plotted as a function of Nedd4-2^355–455 or 14-3-3η concentration to construct sw isotherms. The resulting isotherms were fitted with a A + B ⇌ AB model, as implemented in the SEDPHAT software package with previously known sw values of each component. The parameters were verified, and the loading concentrations were corrected using global Lamm-equation modeling, also implemented in the SEDPHAT software[66]

[5] = tested on: all human 14-3-3 protein isoforms; test: native TBE-PAGE isoform binding specificity; conditions: 12% TBE-PAGE, 128 pmol 14-3-3 and 64 pmol pNedd4-2^335–455
Experimental: In addition, we prepared pNedd4-2^335–455 to characterize 14-3-3 isoform binding specificity.
Supplementary Fig. S2. Characterization of the interaction between Nedd4-2 and 14-3-3 in solution. a Continuous sedimentation coefficient distributions (c(s)) of 10 μM pNedd4- […]
mixed at 1:2 (cyan) and 1:1 (green) molar ratios. The protein concentrations were 10 μM for 14335-455 335-455-3-3ε and 5 μM or 10 μM for pNedd4335-455 -2 . b Isoform binding specificity of pNedd4-2 .
Phosphorylated pNedd4-2 , 14-3-3 proteins and their complexes were separated by 12% TBE-PAGE to study the interaction of pNedd4-2335-455 with all seven human 14-3-3 isoforms (β, γ, ε, δ, ε, σ, and τ). The amounts of protein loaded on the native gel were 128 pmol of 14335-455 -3-3 and […]
(1 picture or pasted object on this page, not shown here)

[6] = frames from the right side of the elution peak
[7] = frames from the top of the elution peak

Molecule	Dmax [1, 6] [nm]	Rg (GNOM) [1, 6] [nm]	VP (Porod volume) [1, 6] [nm^3]	Rg (Guinier approximation) [1, 6] [nm]	Dmax [1, 7] [nm]	Rg (GNOM) [1, 7] [nm]	VP (Porod volume) [1, 7] [nm^3]	Rg (Guinier approximation) [1, 7] [nm]	maximum particle dimension Dmax ([1]; from P(r) functions) [Å]	Kd (14-3-3η [2]; 300 nM pNedd4-2^186–975 with 0.06−6 μM 14-3-3η, A + B ⇌ AB (Langmuir) model, one pNedd4-2 per 14-3-3η dimer, 50 mM Tris-HCl pH 8.0, 500 mM NaCl, 1 mM TCEP, 0.01% Tergitol NP-40, 20 °C, read-out: apparent KD) [nM]	complex formation on native TBE-PAGE (14-3-3η [3])	f/f0 ([4]; SV-AUC c(s) analysis)	weight-averaged sedimentation coefficient sw(20,w), unit not given ([4]; corrected to 20.0 °C and density of water) [S]	complex formation on native TBE-PAGE, all isoforms [5]	binding affinity (in words) (14-3-3η [2])	binding affinity (in words) (14-3-3η [2]; listed as Nedd^335-455no pS)
Nedd4-2^186–975: N-terminally truncated human Nedd4-2, missing the C2 domain (protein, phosphoserine at 342, phosphothreonine at 367, phosphoserine at 448 (PKA in vitro, confirmed by LC-MS); left off: His6, C-terminal, kept, N-terminally truncated human Nedd4-2, missing the C2 domain) HQEELPPPPLPPGWEEKVDNLGRTYYVNHNNRTTQWHRPSLMDVSSESDNNIRQINQEAAHRRFRSRRHISEDLEPEPSEGGDVPEPWETISEEVNIAGDSLGLALPPPPASPGSRTSPQELSEELSRRLQITPDSNGEQFSSLIQREPSSRLRSCSVTDAVAEQGHLPPPSAPAGRARSSTVTGGEEPTPSVAYVHTTPGLPSGWEERKDAKGRTYYVNHNNRTTTWTRPIMQLAEDGASGSATNSNNHLIEPQIRRPRSLSSPTVTLSAPLEGAKDSPVRRAVKDTLSNPQSPQPSPYNSPKPQHKVTQSFLPPGWEMRIAPNGRPFFIDHNTKTTTWEDPRLKFPVHMRSKTSLNPNDLGPLPPGWEERIHLDGRTFYIDHNSKITQWEDPRLQNPAITGPAVPYSREFKQKYDYFRKKLKKPADIPNRFEMKLHRNNIFEESYRRIMSVKRPDVLKARLWIEFESEKGLDYGGVAREWFFLLSKEMFNPYYGLFEYSATDNYTLQINPNSGLCNEDHLSYFTFIGRVAGLAVFHGKLLDGFFIRPFYKMMLGKQITLNDMESVDSEYYNSLKWILENDPTELDLMFCIDEENFGQTYQVDLKPNGSEIMVTNENKREYIDLVIQWRFVNRVQKQMNAFLEGFTELLPIDLIKIFDENELELLMCGLGDVDVNDWRQHSIYKNGYCPNHPVIQWFWKAVLLMDAEKRIRLLQFVTGTSRVPMNGFAELYGSNGPQLFTIEQWGSPEKLPRAHTCFNRLDLPPYETFEDLREKLLMAVENAQGFEGVD	16.9	4.54 ± 0.02	192	4.39 ± 0.02	18.3	4.92 ± 0.01	218	4.67 ± 0.01	169	~50	phosphorylation-dependent interaction	–	–	–	–	–
pNedd4-2^335–455: shorter Nedd4-2 variant missing both the C2 and the HECT domains, all three phosphorylation sites (protein, phosphoserine at 342, phosphothreonine at 367, phosphoserine at 448; left off: His6, N-terminal, cleaved | GB1 domain of protein G, N-terminal, cleaved, shorter Nedd4-2 variant missing both the C2 and the HECT domains, all three phosphorylation sites) SSRLRSCSVTDAVAEQGHLPPPSAPAGRARSSTVTGGEEPTPSVAYVHTTPGLPSGWEERKDAKGRTYYVNHNNRTTTWTRPIMQLAEDGASGSATNSNNHLIEPQIRRPRSLSSPTVTLS	–	–	–	–	–	–	–	–	–	–	–	1.5	1.4	forms stable complexes	–	–
no pS: Nedd4-2^335–455 variant with all sites mutated to alanine, negative control (protein, left off: His6, N-terminal, cleaved | GB1 domain of protein G, N-terminal, cleaved, Nedd4-2^335–455 variant with all sites mutated to alanine, negative control) SSRLRSCAVTDAVAEQGHLPPPSAPAGRARSSAVTGGEEPTPSVAYVHTTPGLPSGWEERKDAKGRTYYVNHNNRTTTWTRPIMQLAEDGASGSATNSNNHLIEPQIRRPRSLASPTVTLS	–	–	–	–	–	–	–	–	–	–	lost its ability to bind	–	–	–	no interaction	undetected
